Experimental data reported in PMC9063426, “MAP kinases differentially bind and phosphorylate NOS3 via two unique NOS3 sites” (FEBS Open Bio, 2022).
Values belong to the binder of their own block, whether it stands above or below them. Where no end group is shown, it is not given here. The star is where a group is joined. Biotin = O=C1N[C@H]2[C@H](CS[C@H]2CCCCC(=O)*)N1

B3: Active GST-JNK1α1 (SignalChem) (enzyme, UniProt P45983-2 1-384, looked up)
chain: MSRSKRDNNFYSVEIGDSTFTVLKRYQNLKPIGSGAQGIVCAAYDAILERNVAIKKLSRPFQNQTHAKRAYRELVLMKCVNHKNIIGLLNVFTPQKSLEEFQDVYIVMELMDANLCQVIQMELDHERMSYLLYQMLCGIKHLHSAGIIHRDLKPSNIVVKSDCTLKILDFGLARTAGTSFMMTPYVVTRYYRAPEVILGMGYKENVDLWSVGCIMGEMVCHKILFPGRDYIDQWNKVIEQLGTPCPEFMKKLQPTVRTYVENRPKYAGYSFEKLFPDVLFPADSEHNKLKASQARDLLSKMLVIDASKRISVDEALQHPYINVWYDPSEAEAPPPKIPDKQLDEREHTIEEWKELIYKEVMDLEERTKNGVIRGQPSPLAQVQQ
modifications: active (phosphorylated) form, sites not given; biotin by amine crosslinking to NHS-LC-LC-biotin (5:1 biotin to protein)
notes: Biotinylated and held on streptavidin sensors for the NOS3 experiment; also called c-Jun N-terminal kinase; source: bought: SignalChem (JNK1, Lot #X561-2), GST-purified, active
B6: NOS3 (bovine), full-length (enzyme, UniProt P29473 1-1205, looked up)
chain: MGNLKSVGQEPGPPCGLGLGLGLGLCGKQGPASPAPEPSRAPAPATPHAPDHSPAPNSPTLTRPPEGPKFPRVKNWELGSITYDTLCAQSQQDGPCTPRCCLGSLVLPRKLQTRPSPGPPPAEQLLSQARDFINQYYSSIKRSGSQAHEERLQEVEAEVASTGTYHLRESELVFGAKQAWRNAPRCVGRIQWGKLQVFDARDCSSAQEMFTYICNHIKYATNRGNLRSAITVFPQRAPGRGDFRIWNSQLVRYAGYRQQDGSVRGDPANVEITELCIQHGWTPGNGRFDVLPLLLQAPDEAPELFVLPPELVLEVPLEHPTLEWFAALGLRWYALPAVSNMLLEIGGLEFSAAPFSGWYMSTEIGTRNLCDPHRYNILEDVAVCMDLDTRTTSSLWKDKAAVEINLAVLHSFQLAKVTIVDHHAATVSFMKHLDNEQKARGGCPADWAWIVPPISGSLTPVFHQEMVNYILSPAFRYQPDPWKGSATKGAGITRKKTFKEVANAVKISASLMGTLMAKRVKATILYASETGRAQSYAQQLGRLFRKAFDPRVLCMDEYDVVSLEHEALVLVVTSTFGNGDPPENGESFAAALMEMSGPYNSSPRPEQHKSYKIRFNSVSCSDPLVSSWRRKRKESSNTDSAGALGTLRFCVFGLGSRAYPHFCAFARAVDTRLEELGGERLLQLGQGDELCGQEEAFRGWAKAAFQASCETFCVGEEAKAAAQDIFSPKRSWKRQRYRLSTQAEGLQLLPGLIHVHRRKMFQATVLSVENLQSSKSTRATILVRLDTAGQEGLQYQPGDHIGICPPNRPGLVEALLSRVEDPPPPTESVAVEQLEKGSPGGPPPSWVRDPRLPPCTLRQALTFFLDITSPPSPRLLRLLSTLAEEPSEQQELETLSQDPRRYEEWKWFRCPTLLEVLEQFPSVALPAPLLLTQLPLLQPRYYSVSSAPNAHPGEVHLTVAVLAYRTQDGLGPLHYGVCSTWLSQLKTGDPVPCFIRGAPSFRLPPDPYVPCILVGPGTGIAPFRGFWQERLHDIESKGLQPAPMTLVFGCRCSQLDHLYRDEVQDAQERGVFGRVLTAFSREPDSPKTYVQDILRTELAAEVHRVLCLERGHMFVCGDVTMATSVLQTVQRILATEGDMELDEAGDVIGVLRDQQRYHEDIFGLTLRTQEVTSRIRTQSFSLQERHLRGAVPWAFDPPGPDTPGP
notes: Nitric oxide synthase 3 (endothelial NOS), bovine, heterologously expressed; called full-length in the abstract and discussion; also called nitric oxide synthase 3; eNOS; source: E. coli BL21(DE3), purified

What was measured:
Conditions in all cases: both partners purified
[1] = biological target: T1, Nitric oxide synthase 3 (NOS3), bovine, full-length (bovine, UniProt P29473 1-1205); experiment: BLI; biotinylated active GST-JNK1α1 on streptavidin sensors, NOS3 as analyte (25 to 800 nM); 25 °C; 50 mM Tris pH 7.4, 10 mM NaCl, 10% glycerol, 0.01% Tween-20; global one-state association-then-dissociation fit
T1 construct: Nitric oxide synthase 3 (endothelial NOS), bovine, heterologously expressed in E. coli; called full-length NOS3 in the abstract and discussion; also called eNOS; endothelial nitric oxide synthase; source: E. coli BL21(DE3), purified
T1 sequence (looked up): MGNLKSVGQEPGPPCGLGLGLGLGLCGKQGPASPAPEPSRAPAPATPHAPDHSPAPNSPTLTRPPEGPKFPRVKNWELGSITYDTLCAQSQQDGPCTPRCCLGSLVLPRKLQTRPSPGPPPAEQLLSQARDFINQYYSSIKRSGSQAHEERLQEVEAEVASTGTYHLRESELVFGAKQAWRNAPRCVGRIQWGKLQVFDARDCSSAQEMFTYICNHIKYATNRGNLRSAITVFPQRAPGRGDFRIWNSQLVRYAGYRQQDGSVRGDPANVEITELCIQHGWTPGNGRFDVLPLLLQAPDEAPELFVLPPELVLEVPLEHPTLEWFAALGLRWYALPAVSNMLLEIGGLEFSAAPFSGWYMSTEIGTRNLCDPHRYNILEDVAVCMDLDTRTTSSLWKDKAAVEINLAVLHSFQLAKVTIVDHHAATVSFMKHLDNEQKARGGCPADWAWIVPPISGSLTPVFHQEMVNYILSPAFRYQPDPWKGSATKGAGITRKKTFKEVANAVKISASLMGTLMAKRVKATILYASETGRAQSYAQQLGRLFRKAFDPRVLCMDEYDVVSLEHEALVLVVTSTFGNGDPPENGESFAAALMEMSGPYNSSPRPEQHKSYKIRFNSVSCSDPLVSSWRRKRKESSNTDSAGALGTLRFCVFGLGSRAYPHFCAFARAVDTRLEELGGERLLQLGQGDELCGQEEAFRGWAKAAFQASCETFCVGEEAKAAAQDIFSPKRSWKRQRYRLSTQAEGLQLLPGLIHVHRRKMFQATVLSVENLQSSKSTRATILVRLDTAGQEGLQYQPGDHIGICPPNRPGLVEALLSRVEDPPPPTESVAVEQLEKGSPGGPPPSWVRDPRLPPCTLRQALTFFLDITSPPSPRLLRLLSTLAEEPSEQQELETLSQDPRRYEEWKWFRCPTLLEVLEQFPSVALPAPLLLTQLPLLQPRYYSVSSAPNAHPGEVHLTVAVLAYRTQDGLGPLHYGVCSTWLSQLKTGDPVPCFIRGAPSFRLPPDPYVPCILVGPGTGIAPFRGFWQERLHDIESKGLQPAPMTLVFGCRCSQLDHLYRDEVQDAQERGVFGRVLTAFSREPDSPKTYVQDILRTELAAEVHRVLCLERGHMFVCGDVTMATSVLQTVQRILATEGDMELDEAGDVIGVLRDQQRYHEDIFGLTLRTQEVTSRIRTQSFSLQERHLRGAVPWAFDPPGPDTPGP

[2] = biological target: p38α, inactive (unphosphorylated), His-purified (UniProt Q16539 1-360); experiment: BLI; N-terminally biotinylated NOS3 peptides on streptavidin sensors, inactive MAP kinases as analytes (31 to 1000 nM); 25 °C; PBS with 10% glycerol, 0.005% tween, 1 mM DTT; global one-state association-then-dissociation fit
Target sequence in this assay (Q16539 whole entry, the tested form may be a part): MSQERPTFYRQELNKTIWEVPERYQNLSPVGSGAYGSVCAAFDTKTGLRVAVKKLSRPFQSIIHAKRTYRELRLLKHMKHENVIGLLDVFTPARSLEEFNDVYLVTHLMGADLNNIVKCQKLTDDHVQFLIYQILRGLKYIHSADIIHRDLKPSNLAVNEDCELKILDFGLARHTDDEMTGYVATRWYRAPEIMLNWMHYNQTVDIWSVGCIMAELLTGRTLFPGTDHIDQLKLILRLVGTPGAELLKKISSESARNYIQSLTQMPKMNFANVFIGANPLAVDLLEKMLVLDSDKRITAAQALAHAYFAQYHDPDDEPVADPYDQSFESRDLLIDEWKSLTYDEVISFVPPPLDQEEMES

[3] = biological target: B6; experiment: BLI; biotinylated active GST-JNK1α1 (or the fusion partner alone as control) on streptavidin sensors, NOS3 as analyte at 25-800 nM; 25 °C; 50 mM Tris pH 7.4, 10 mM NaCl, 10% glycerol, 0.01% Tween-20; global one-state association-then-dissociation fit
[4] = biological target: p38α, inactive (unphosphorylated), His-purified (UniProt Q16539 1-360); experiment: BLI; N-terminally biotinylated NOS3 peptides on streptavidin sensors, inactive MAP kinases as analytes at 31-1000 nM; 25 °C; PBS with 10% glycerol, 0.005% tween, 1 mM DTT; global one-state association-then-dissociation fit
[5] = biological target: B3; experiment: BLI; biotinylated active GST-JNK1α1 (or the fusion partner alone as control) on streptavidin sensors, NOS3 as analyte at 25-800 nM; 25 °C; 50 mM Tris pH 7.4, 10 mM NaCl, 10% glycerol, 0.01% Tween-20; global one-state association-then-dissociation fit

B1: Active GST-JNK1α1 (SignalChem), biotinylated (enzyme, UniProt P45983-2 1-384, looked up)
chain: MSRSKRDNNFYSVEIGDSTFTVLKRYQNLKPIGSGAQGIVCAAYDAILERNVAIKKLSRPFQNQTHAKRAYRELVLMKCVNHKNIIGLLNVFTPQKSLEEFQDVYIVMELMDANLCQVIQMELDHERMSYLLYQMLCGIKHLHSAGIIHRDLKPSNIVVKSDCTLKILDFGLARTAGTSFMMTPYVVTRYYRAPEVILGMGYKENVDLWSVGCIMGEMVCHKILFPGRDYIDQWNKVIEQLGTPCPEFMKKLQPTVRTYVENRPKYAGYSFEKLFPDVLFPADSEHNKLKASQARDLLSKMLVIDASKRISVDEALQHPYINVWYDPSEAEAPPPKIPDKQLDEREHTIEEWKELIYKEVMDLEERTKNGVIRGQPSPLAQVQQ
modifications: active (phosphorylated) form; biotinylated by amine crosslinking to NHS-LC-LC-biotin, 5 : 1 molar ratio of biotin to protein
notes: also called c-Jun N-terminal kinase; source: bought: SignalChem (Lot #X561-2)
koff [1]: 6.19e-05 s⁻¹

Binder: B3
Kd [3]: 15 nM
koff [3]: 6.2e-05 s⁻¹
kon [3]: 4110 M⁻¹ s⁻¹

B5: AI peptide (NOS3 autoinhibitory loop site) (peptide)
peptide: Biotin-YKIRFNSISCSDPLVSSWRRKRKESSNTDSA
notes: source: synthetic peptide, bought: Biomatik
Kd [4]: 61 nM
koff [4]: 0.00096 s⁻¹
kon [4]: 16000 M⁻¹ s⁻¹

Binder: B6
KD (fit without the 400 nM trace) [5]: 18 nM

Next, values leading:

koff [2]: 0.000534 s⁻¹
kon [2]: 17300 M⁻¹ s⁻¹
B2: NOS3 NtMAP peptide (N-terminal MAP kinase site), biotinylated (peptide)
peptide: Biotin-CTPRRCLGSLVFPRKLQGRPSPGPPA
modifications: cysteine pairing not given here
notes: Human NOS3, N-terminal MAP kinase (NtMAP) site with the S114 site, unphosphorylated; source: synthetic peptide (Biomatik)

koff [2]: 0.000968 s⁻¹
kon [2]: 15900 M⁻¹ s⁻¹
Binder: Biotin-YKIRFNSISCSDPLVSSWRRKRKESSNTDSA (source: synthetic peptide (Biomatik)) [NOS3 AI peptide (autoinhibitory loop site), biotinylated]

Kd [4]: 31 nM
koff [4]: 0.00053 s⁻¹
kon [4]: 17000 M⁻¹ s⁻¹
B4: NtMAP peptide (NOS3 N-terminal MAP kinase site) (peptide)
peptide: Biotin-CTPRRCLGSLVFPRKLQGRPSPGPPA
modifications: cysteine pairing not given here
notes: Human NOS3, N-terminal MAP kinase (NtMAP) site with the S114 site; source: synthetic peptide, bought: Biomatik
